The target in assay [1] is T1, activated thrombin-activatable fibrinolysis inhibitor (human TAFIa) (human, UniProt Q96IY4 115-423).
T1 construct: Purified from human serum in the presence of 5 mM epsilon-aminocaproic acid; also called carboxypeptidase U
T1 sequence (looked up): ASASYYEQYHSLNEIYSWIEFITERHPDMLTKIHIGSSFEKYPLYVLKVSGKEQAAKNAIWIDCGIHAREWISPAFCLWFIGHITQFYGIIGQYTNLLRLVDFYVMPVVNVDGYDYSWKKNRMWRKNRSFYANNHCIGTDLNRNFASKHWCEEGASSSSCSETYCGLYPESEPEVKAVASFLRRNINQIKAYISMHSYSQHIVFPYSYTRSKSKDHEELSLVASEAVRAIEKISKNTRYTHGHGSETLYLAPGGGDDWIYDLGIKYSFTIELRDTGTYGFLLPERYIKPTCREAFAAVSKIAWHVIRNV

For assay [2], the target named is T2, human carboxypeptidase B (human, UniProt P15086 111-417).
T2 construct: also called CPB
T2 sequence (looked up): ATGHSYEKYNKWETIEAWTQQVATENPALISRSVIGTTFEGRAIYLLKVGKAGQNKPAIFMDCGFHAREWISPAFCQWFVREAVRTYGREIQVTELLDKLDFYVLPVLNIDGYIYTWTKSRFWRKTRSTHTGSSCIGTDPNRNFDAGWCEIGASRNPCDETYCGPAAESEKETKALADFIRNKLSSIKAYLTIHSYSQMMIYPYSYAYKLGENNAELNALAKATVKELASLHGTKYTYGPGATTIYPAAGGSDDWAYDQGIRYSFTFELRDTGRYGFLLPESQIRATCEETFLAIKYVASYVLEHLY

Turning to QQHADPICNKPCKTHDDCSGAWFCQACWNSARTCGPYVG (peptide, UniProt P01075 1-39, looked up, also called PCI) [potato carboxypeptidase inhibitor], the binding result in assay [1] and in assay [2] was “binds” throughout.

(Values after patent publication US7176008 (MERCK, dated 2007).)
